Test results reported in patent publication US5773694.

Legend:
[1] = target: reduced and S-carboxyamidomethylated Ace-AMP1 (Allium cepa)
[2] = target: Ace-AMP1 (Allium cepa - Antimicrobial Protein 1), mature protein purified from Allium cepa seeds (Allium cepa)

Substance | Relative antifungal activity (% of control activity) after protease digestion (% of control activity) [2] | other results
endoproteinase Asp-N (sequencing grade, Boehringer) (enzyme) |  | protein fragments separated by RP-HPLC after digestion (protein fragments) [1]: 3
Trypsin (enzyme) | 90 | 
Pronase E (enzyme) | 5 | 
endoproteinase Arg-C (sequencing grade, Boehringer) (enzyme) |  | peptides separated by RP-HPLC after digestion (separable peptides) [1]: > 10

More lines, main results first:

Relative antifungal activity (% of control activity) after protease digestion (% of control activity) [2] | Substance | other results
80 | Chymotrypsin (enzyme) | 
60 | Proteinase K (enzyme) | 
